Among the data in patent US20240109937A1 (Johns Hopkins, published 2024) are IC50 and Kd values, retold here.

Bridge positions count the residues as written; N and C are the ends. Square brackets hold non-standard residues; d marks the D form. Ends that are not written are not given here. Lys(N3) = [N-]=[N+]=NCCCC[C@H](N)C(=O)O; hArg = N=C(N)NCCCC[C@H](N)C(=O)O; Tle = CC(C)(C)[C@H](N)C(=O)O; Hpra = C#CCC[C@H](N)C(=O)O; Nle = CCCC[C@H](N)C(=O)O

Test [1] addresses T1, Peptidylprolyl isomerase A (PPIA), also known as cyclophilin A (CypA) (UniProt P62937 1-165).
T1 construct: Protein used for the in vitro KD/IC50 values
Description: disruption of the AIF/Cyclophilin complex in living cells and in vitro; method not stated.

For test [2], the target named is T1, Peptidylprolyl isomerase A (PPIA), also …. The test is described as follows: binding to CypA; method not stated.
For test [3] the target is unchanged. Description: KD 'determined', method not stated; target not given, taken as CypA.
The target is the same in test [4]. The test is described as follows: printed as 'Disrupts the complex AIF/Cyclophilin with a KD'; method not stated.
For test [5], the target named is Apoptosis-inducing factor (AIF) protein (UniProt O95831 122-613, limits assumed). Description: printed as 'Disrupts the complex AIF/Cyclophilin with a KD'; method not stated; target taken as AIF.
In test [6] the target is T1, Peptidylprolyl isomerase A (PPIA), also …. Description: printed as 'disrupts the complex AIF/Cyclophilin with a KD'; method not stated.

T1 sequence (P62937 whole entry): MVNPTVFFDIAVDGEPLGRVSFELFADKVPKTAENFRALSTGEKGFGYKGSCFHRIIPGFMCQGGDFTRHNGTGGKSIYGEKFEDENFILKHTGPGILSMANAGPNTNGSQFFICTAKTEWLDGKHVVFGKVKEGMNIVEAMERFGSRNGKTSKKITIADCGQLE
Apoptosis-inducing factor (AIF) protein, sequence (O95831 122-613 limits assumed): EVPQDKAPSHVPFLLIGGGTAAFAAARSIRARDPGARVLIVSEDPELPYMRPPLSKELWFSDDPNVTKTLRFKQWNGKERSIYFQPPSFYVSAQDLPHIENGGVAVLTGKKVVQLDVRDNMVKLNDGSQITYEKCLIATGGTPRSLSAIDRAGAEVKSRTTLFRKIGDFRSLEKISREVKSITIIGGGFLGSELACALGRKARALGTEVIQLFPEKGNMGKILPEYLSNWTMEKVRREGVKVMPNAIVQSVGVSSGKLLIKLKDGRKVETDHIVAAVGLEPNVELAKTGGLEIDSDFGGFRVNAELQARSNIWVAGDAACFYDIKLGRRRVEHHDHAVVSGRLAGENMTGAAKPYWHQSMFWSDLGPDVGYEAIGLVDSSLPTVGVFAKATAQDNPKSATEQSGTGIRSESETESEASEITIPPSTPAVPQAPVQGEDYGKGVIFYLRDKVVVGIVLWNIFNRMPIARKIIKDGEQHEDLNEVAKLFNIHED

B1: AIF (370-394) (peptide)
peptide: Ac-QSVGVSSGKLLIKLKDGRKVETDHI-NH2
notes: also called AIF mimetic peptide (amino acids 370-394)
For B1, the IC50 in test [1] turned out to be 5 µM. Moreover, the Kd in test [2] is around 5 µM.

Molecule CIKLK[Tle][Tle]RKVC (disulfide 1-11, X stands for the non-natural residue) [Cyclic peptide derived from Formula (I), X5-X6: Tle-Tle] came in with a Kd in test [3] of 13.6 µM.

CIKLK[Nle]LRKVC (disulfide 1-11, X stands for the non-natural residue) [Cyclic peptide derived from Formula (I), X5-X6: Nle -L]: the affinity in test [3], expressed as Kd, was 30.7 µM.

B2: Cyclic peptide derived from Formula (I), X2: hR (peptide)
peptide: CI[hArg]LKDGRKVC
modifications: disulfide 1-11; also: Y1 can be H (free N-terminus), Y2 can be amino (C-terminal amide)
notes: Only the changed residues are printed; X stands for the non-natural residue
In turn, B2 showed a Kd in test [3] of 80.3 µM.

B3: AIF (370-394)-stapled peptides (peptide)
peptide: Ac-QSCGVSSG[Lys(N3)]LLCKLKDGRKV[Hpra]TDHI-NH2
modifications: disulfide 3-12; triazole 9-21
notes: also called stapled AIF (370-394) analog
As to B3, in test [4], the Kd was around 0.8 µM.

As for CIKLKLLRKVC (disulfide 1-11) [Cyclic peptide derived from Formula (I), X5-X6: L-L], the affinity in test [3], expressed as Kd, was 1.2 µM.

As to CIKLK[Nle][Nle]RKVC (disulfide 1-11, X stands for the non-natural residue) [Cyclic peptide derived from Formula (I), X5-X6: Nle-Nle], the Kd in test [3] came out at 22.9 µM.

Regarding CIKLK[Tle]LRKVC (disulfide 1-11, X stands for the non-natural residue) [Cyclic peptide derived from Formula (I), X5-X6: Tle-L], the affinity in test [3], expressed as Kd, was 147 µM.

With Ac-RIIPGFMCQGGDFTR-NH2 [CypA (55-69)], in test [5], the Kd is around 6 µM.

B4: AIF (381-389) LLox (peptide)
peptide: Ac-CIKLKLLRKVC-NH2
modifications: disulfide 1-11
SMILES: CC[C@H](C)[C@@H]1NC(=O)[C@@H](NC(C)=O)CSSC[C@@H](C(N)=O)NC(=O)[C@H](C(C)C)NC(=O)[C@H](CCCCN)NC(=O)[C@H](CCCNC(=N)N)NC(=O)[C@H](CC(C)C)NC(=O)[C@H](CC(C)C)NC(=O)[C@H](CCCCN)NC(=O)[C@H](CC(C)C)NC(=O)[C@H](CCCCN)NC1=O
B4 displayed a Kd in test [6] of around 1 µM.

Take CIKLKLIRKVC (disulfide 1-11) [Cyclic peptide derived from Formula (I), X5-X6: L-I]: the Kd in test [3] was determined as 233 µM.

Consider CIKLKILRKVC (disulfide 1-11) [Cyclic peptide derived from Formula (I), X5-X6: I-L], for which the Kd in test [3] was 89.9 µM.

With CIKLKIIRKVC (disulfide 1-11) [Cyclic peptide derived from Formula (I), X5-X6: I-I], the Kd in test [3] worked out at 58.9 µM.

In test [3], CIKLKVVRKVC (disulfide 1-11) [Cyclic peptide derived from Formula (I), X5-X6: V-V] returned a Kd of 268 µM.

Take CIKLKVLRKVC (disulfide 1-11) [Cyclic peptide derived from Formula (I), X5-X6: V-L]: the Kd in test [3] turned out to be 37.6 µM.

Turning to CIKLKLVRKVC (disulfide 1-11) [Cyclic peptide derived from Formula (I), X5-X6: L-V], the Kd in test [3] was 7.57 µM.

For CIKLKL[Tle]RKVC (disulfide 1-11, X stands for the non-natural residue) [Cyclic peptide derived from Formula (I), X5-X6: L- Tle], the affinity in test [3], expressed as Kd, was 151 µM.

B5: AIF (381-389) ox (peptide)
peptide: Ac-CIKLKDGRKVC-NH2
modifications: disulfide 1-11
SMILES: CC[C@H](C)[C@@H]1NC(=O)[C@@H](NC(C)=O)CSSC[C@@H](C(N)=O)NC(=O)[C@H](C(C)C)NC(=O)[C@H](CCCCN)NC(=O)[C@H](CCCNC(=N)N)NC(=O)CNC(=O)[C@H](CC(=O)O)NC(=O)[C@H](CCCCN)NC(=O)[C@H](CC(C)C)NC(=O)[C@H](CCCCN)NC1=O
In test [6], B5 came in with a Kd of around 2 µM.

In turn, CIKLKL[Nle]RKVC (disulfide 1-11, X stands for the non-natural residue) [Cyclic peptide derived from Formula (I), X5-X6: L- Nle] came in with a Kd in test [3] of 23.9 µM.

Broadly, the IC50 is the midpoint of a concentration-inhibition curve. A higher IC50 goes with lower potency. A word on the Kd: it is a measure of binding affinity in units of concentration. Low values mean a tighter complex, high ones a looser complex.
